Positions count from the first letter of the chain named.

The labels stand for the following.
B1: RGMA-h5F9Vh7a/pJP291 hIgG1/K mut (antibody, V domains shown)
VH: EVQLVESGGGLVQPGGSLRLSCAASGFTFSNYGMNWIRQAPGKGLEWIGMIYYDSSEKHYADSVKGRFTISRDNSKNTLYLQMNSLRAEDTAVYYCAKGTTPDYWGQGTMVTVSS
VL: DVVLTQSPLSLPVTLGQPASISCRSSQSLESSDGDTFLEWFQQRPGQSPRLLIYDVSTRFSGVPDRFSGSGSGTDFTLKISRVEAEDVGVYYCFQVTHDPVTFGQGTKLEIK
notes: Tested as IgG; also called h5F9.AM4; H5F9AM.4
B2: humanized antibody 5F9.23 (antibody, V domains shown)
VH: B1 VH
VL: DVVLTQSPLSLPVTLGQPASISCRSSQSLEYSDGYTFLEWFQQRPGQSPRLLIYEVSNRFSGVPDRFSGSGSGTDFTLKISRVEAEDVGVYYCFQATHDPLTFGQGTKLEIKR
notes: also called h5F9.23; H5F9.23
B3: RGMA-h5F9pJP297/pJP298 hIgG1/K mut (antibody, V domains shown)
VH: B1 VH
VL: B1 VL with S31E, D35Y, E39H, D55E, V96A, V101L
notes: Tested as IgG; also called h5F9.AM8; H5F9AM.8
B4: RGMA-h5F9pJP302/pJP303 hIgG1/K mut (antibody, V domains shown)
VH: B1 VH with I37V, I48V, G49S
VL: B1 VL with S31D, D35G, T58S, V96A, V101L, T102S
notes: Tested as IgG; also called h5F9.AM11; H5F9AM.11
B5: RGMA-h5F9pJP297/pJP299 hIgG1/K mut (antibody, V domains shown)
VH: B1 VH with L11V, G16R, I37V, I48V, G49A, K98R
VL: B1 VL with E30A, S31D, E39H, D55A, T58H, V96A
notes: Tested as IgG; also called h5F9.AM9; H5F9AM.9

The target in one assay is T1, Rat RGMa (rat) (UniProt D4A188).
T1 sequence: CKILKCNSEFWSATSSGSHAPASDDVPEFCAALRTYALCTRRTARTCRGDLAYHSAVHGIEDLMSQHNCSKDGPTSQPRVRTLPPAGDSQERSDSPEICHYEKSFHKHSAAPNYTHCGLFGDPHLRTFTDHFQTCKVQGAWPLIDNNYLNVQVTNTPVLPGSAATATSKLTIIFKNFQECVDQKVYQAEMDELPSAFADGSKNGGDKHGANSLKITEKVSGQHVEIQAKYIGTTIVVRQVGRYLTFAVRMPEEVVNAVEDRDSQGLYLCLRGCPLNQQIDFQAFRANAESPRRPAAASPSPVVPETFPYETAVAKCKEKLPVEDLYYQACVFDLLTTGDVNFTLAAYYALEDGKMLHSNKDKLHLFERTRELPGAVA
The experiment in a line: BIAcore; Ab captured via anti-hIgG Fc on CM5 chip, antigen injected; 1:1 Langmuir fit.
Broadly, the Kd is a measure of binding affinity in units of concentration. The low end stands for higher affinity, the high end for lower affinity. The koff is the first-order rate constant of dissociation. What is called kon is the second-order rate constant of association. On to B1, for which the Kd was < 0.00094 nM, the koff was < 1e-06 s⁻¹ and the on-rate constant (kon) was determined as 1.1e+06 M⁻¹ s⁻¹.

B2: the Kd came out at 2.1 nM, the koff worked out at 0.0017 s⁻¹ and the kon was 830000 M⁻¹ s⁻¹.

Take B3: the Kd is < 0.0015 nM, the koff was < 1e-06 s⁻¹ and the association rate constant (kon) came to 660000 M⁻¹ s⁻¹.

Turning to B4, the Kd amounted to 0.074 nM, the koff stood at 5.2e-05 s⁻¹ and the kon turned out to be 700000 M⁻¹ s⁻¹.

B5 displayed a Kd of 0.31 nM, a koff of 0.00021 s⁻¹ and a kon of 680000 M⁻¹ s⁻¹.

A further assay addresses T2, hRGMc expressed in 293HEK cells (human, UniProt Q6ZVN8 36-400).
T2 sequence: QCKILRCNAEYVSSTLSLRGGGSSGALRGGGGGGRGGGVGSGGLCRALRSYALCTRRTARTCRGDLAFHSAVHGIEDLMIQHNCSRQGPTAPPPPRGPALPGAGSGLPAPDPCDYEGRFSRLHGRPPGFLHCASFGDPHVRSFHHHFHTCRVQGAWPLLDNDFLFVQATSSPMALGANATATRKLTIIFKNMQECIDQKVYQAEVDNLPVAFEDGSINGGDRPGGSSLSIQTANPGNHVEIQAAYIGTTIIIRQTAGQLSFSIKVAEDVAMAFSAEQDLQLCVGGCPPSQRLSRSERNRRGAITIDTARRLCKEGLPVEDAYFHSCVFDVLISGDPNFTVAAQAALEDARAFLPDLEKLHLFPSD
Kind of assay: cell-based or functional assay.
Regarding B1, the “IC50 (inhibition of RGMc-mediated BRE-luciferase activity, RLU, in 293HEK cells transfected with hRGMc)” value came out at 0.31 nM.

Turning to B2, the “IC50 (inhibition of RGMc-mediated BRE-luciferase activity, RLU, in 293HEK cells transfected with hRGMc)” value worked out at 17.1 nM.

With B3, the “IC50 (inhibition of RGMc-mediated BRE-luciferase activity, RLU, in 293HEK cells transfected with hRGMc)” value came out at 0.38 nM.

Turning to B4, the “IC50 (inhibition of RGMc-mediated BRE-luciferase activity, RLU, in 293HEK cells transfected with hRGMc)” value was 0.51 nM.

Regarding B5, the “IC50 (inhibition of RGMc-mediated BRE-luciferase activity, RLU, in 293HEK cells transfected with hRGMc)” value came out at 1.36 nM.

In a further assay the target is T3, Rat RGMa-His (rat) (UniProt D4A188).
T3 sequence: T1 sequence
The experiment in a line: Affinity KD (nM); (BIAcore per Example 4). For orientation: SPR reads the build-up and loss of mass on a sensor chip optically.
As for B1, the equilibrium dissociation constant (Kd) was < 0.00094 nM.

On to B3, for which the dissociation constant Kd was < 0.0015 nM.

B4 had a Kd of 0.074 nM.

Molecule B5 displayed an equilibrium dissociation constant (Kd) of 0.31 nM.

The target in another assay is T4, human RGMc (human, UniProt Q6ZVN8 36-400, limits assumed).
T4 construct: also called hRGMc
T4 sequence: T2 sequence
Kind of assay: BIAcore; Ab captured via anti-hIgG Fc on CM5 chip, antigen injected; 1:1 Langmuir fit. As to the method: (§1) The potency data correlates with the affinity data (see Table 5). The affinity of h5F9.23 affinity matured Abs towards human RGMa, rat RGMa, and human RGMc were determined by BIAcore analysis (Table 5). Testing Abs were captured to the surface of a CM5 chip via anti-hIgG Fc Ab, and serially diluted antigens were injected. Association and dissociation rates were monitored for 5 and 10 min respectively. Sensorgrams were fitted by global analysis using the BIAevaluation 4.0.1 software for a 1:1 Langmuir binding model. The equilibrium dissociation constants (KD) were calculated from kinetic rate constants (off rate kd and on rate ka): KD=kd/ka.
On to B1, for which the dissociation constant Kd was 0.13 nM, the off-rate (koff) turned out to be 0.00104 s⁻¹ and the kon was 7.85e+06 M⁻¹ s⁻¹.

Turning to B2, the Kd came out at 29 nM and the kon was determined as 830000 M⁻¹ s⁻¹.

Molecule B3 returned a dissociation constant Kd of 0.105 nM, a koff of 0.00039 s⁻¹ and a kon of 3.95e+06 M⁻¹ s⁻¹.

B4 yielded a dissociation constant (Kd) of 0.285 nM, a koff of 0.0014 s⁻¹ and a kon of 5.05e+06 M⁻¹ s⁻¹.

Molecule B5 registered a Kd of 0.71 nM, a koff of 0.0107 s⁻¹ and a kon of 1.55e+07 M⁻¹ s⁻¹.

The target in a further assay is T5, human RGMa (human, UniProt Q96B86 48-422, limits assumed).
T5 construct: also called hRGMa; h RGMa
T5 sequence (looked up): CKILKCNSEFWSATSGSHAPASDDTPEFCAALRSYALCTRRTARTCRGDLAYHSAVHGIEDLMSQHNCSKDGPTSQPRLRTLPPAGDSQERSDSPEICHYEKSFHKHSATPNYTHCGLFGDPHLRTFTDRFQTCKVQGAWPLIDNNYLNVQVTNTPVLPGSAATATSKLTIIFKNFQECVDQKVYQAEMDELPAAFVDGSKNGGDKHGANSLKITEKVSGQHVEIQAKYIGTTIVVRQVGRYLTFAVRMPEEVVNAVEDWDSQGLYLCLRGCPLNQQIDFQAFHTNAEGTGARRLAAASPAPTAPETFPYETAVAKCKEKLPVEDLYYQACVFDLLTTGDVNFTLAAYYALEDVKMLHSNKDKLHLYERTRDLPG
Described as above. As to the method:
as §1
B1 registered a Kd of 0.015 nM, a koff of 2.2e-05 s⁻¹ and a kon of 1.4e+06 M⁻¹ s⁻¹.

For the molecule B2, the Kd was 3.7 nM, the off-rate (koff) worked out at 0.0022 s⁻¹ and the kon is 600000 M⁻¹ s⁻¹.

Molecule B3 gave a dissociation constant Kd of 0.031 nM, a koff of 2.7e-05 s⁻¹ and a kon of 870000 M⁻¹ s⁻¹.

Consider B4, for which the Kd came out at 0.11 nM, the koff is 9.9e-05 s⁻¹ and the kon was found to be 930000 M⁻¹ s⁻¹.

The molecule B5 showed a Kd of 0.47 nM, a koff of 0.0004 s⁻¹ and a kon of 860000 M⁻¹ s⁻¹.

A further assay deals with T6, R&D hRGMc-His (human, UniProt Q6ZVN8 36-400).
T6 construct: Bought (R&D); not shown: His tag
T6 sequence: T2 sequence
Kind of assay: Affinity KD (nM); (BIAcore per Example 4). Here is the method:
as §1
B1 showed a Kd of 0.12 nM. In other words, the sub-nanomolar range.

B3: the affinity, expressed as Kd, was 0.08 nM.

In turn, B4 showed a Kd of 0.25 nM.

Turning to B5, the Kd was determined as 0.69 nM.

A further assay deals with T7, hRGMa-His (human, UniProt Q96B86 48-422, limits assumed).
T7 construct: not shown: His tag
T7 sequence (looked up): T5 sequence (looked up)
The experiment in a line: Affinity KD (nM); (BIAcore per Example 4). As to the method: as §1
B1 showed a Kd of 0.015 nM.

As to B3, binding was characterised by a dissociation constant (Kd) of 0.031 nM.

With B4, the Kd worked out at 0.11 nM.

The molecule B5 returned a Kd of 0.47 nM.

The next assay has as its target T2, hRGMc expressed in 293HEK cells. The experiment in a line: cell-based or functional assay. The source holds these as a separate data set.
As to B2, the “IC50, RGMc-mediated BMP reporter (BRE-luc) assay in 293HEK cells” value came to 17 nM.

These data come from patent US20130330343A1 (AbbVie / Abbott, published 2013).
